According to the nanobody polyreactivity screen of Harvey et al. (2022):

Test: yeast display, Sf9 membrane polyspecificity reagent, FACS + sequencing; frameworks hold sequencing errors
How it was run: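 Synthetic nanobody libraries on Saccharomyces cerevisiae BJ5465 were galactose-induced for 36–48 hours, stained 1 hour at 4 °C with 10% biotinylated, detergent-solubilized Sf9 membrane reagent and enriched on streptavidin microbeads. FACS then separated cells into low and high (top ~1%) gates by anti-HA (expression) and streptavidin (reagent binding) fluorescence. Genes were colony-PCR amplified, MiSeq 2 × 250 sequenced and CDR-length filtered. A clone's polyreactivity label is that of its gate of origin.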

Row | Sequence | polyreactivity (PSR sort gate)
1 | QVQLVESGGGLVQAGGSLRLSCAASGRIFRPYAMGWYRQAPGKERELVAAITQSGGITSYADSVKGRFTISRDNAKYTVYLQMNSLKPEDTAVYYCAADDFTTAGFGMDYWGEGTQVTVSS | low polyreactivity
2 | QVQLVESGGGLVQAGGSLRLSCAASGSIFPIYAMGWYRQAPRKERELVAAISGSGARTYYADSVKGRFTISRDNAKNTVYLQMNSLKPEDTAVYYCNAKYGYDSEARIVKPVRYDYWGQGTQVTVSS | high polyreactivity
3 | QVQLVESGGGLVQAGGSRRLSCAASGRTSTYYAMGWYRQAPGKERELVAVITRGGSTYYADSVKGRFTISRDNAKNTVYLQMNSLKPEDTAVSYCNADGRVQRKYDYWGQGTQVTVSS | high polyreactivity
4 | QVQLVESGGGLVQAGGSLRLSCAASGSIFLYNTMGWYRQAPGKERELVAAISFSGVTTYYADSVKGRFTISRDNAKNTVYLQMNSLKPEDTAVYYCNKYLWKFTNSPLGDYYWGQGTQVTVSS | high polyreactivity
5 | QVQLVESGGGLVQAGGSLRLSCAASGSIFGWYAMGWYRQAPGTERELVAAIRRGGSTNYADSVKGRFTISRDNAKNTVYLQMNSLKPEDTAVYYCAAGKSGYSKRIFRYSFDYWGQGTQVTVSS | high polyreactivity
6 | QVQLVESGGGLVQAGGSLRLSCAASGFILDYNAMGWYRQAPGKERELVAAITSGGSTNYADSVKGRFTISRDNAKNTVYLQMNSLKPEDTAVYYCNVRSVSPVHDDGSWGQGTQVTVSS | low polyreactivity
7 | QGQLVESGGGLVQAGGSLRLSCAASGRIFYRTAMGWSSQAPGQERELVAVISGSGGRTYYADSVKGRFTIARDNAKNTVYLQMNSLKPEDTAVYYCARRAAYYSYLYSHYPWSYYYWGPGTQVTVSS | high polyreactivity
8 | QVQLVESGGGLVQAGGSLRLSCAASGSIFGYYSMGWYRQAPGKERELVASITSGDSTNYADSVKGRFTISRDNAKNTVYLQMNSLKPEDTAVDYCNTERGYYDEYDYWGQGTQVTVSS | low polyreactivity
9 | QVHLVESGGGLVQAGGSLRLSCAASGNIFYVYVMGWYRQAPGKERELVAYITSGASTYYSDSVKGRFTISRDNAKNTVYFQMNSLKPEDTAVYYCAAEALGGAGAYSTLYIYDYWGEGTQVTVSS | low polyreactivity
10 | QVQLVESGGGLVQAGGSLRISCAASGITFPVYTMGWYRQAPGKERELVAAITSSGGSTYYADSVKGRFTISRDNAKNTVYLQMNSLKPEDTAVYYCAARDYGRHHTYGYWGQGTQVTVSS | high polyreactivity
11 | QVQLVESGGGLVQAGGSLRLSCAASGRTFGVYAMGWSRQAPGKERELVAGIRWRGGSTYYADSVKGRFTISRDNEKKTVYFQMNSLKPEETAVYYCAADVYLVKYDYWGQGTQVTVSS | low polyreactivity
12 | QVQLVESGGGLVQAGGSLRLSCAASGRIFYSNAMGWYRQAHGKERELVAAITGSGGRTHYADSVKGRFTISRDNAKNSVYLQMNSLKPEDTAVYYCAKDGYFPEFDYWGQGTQVTVSS | high polyreactivity
13 | QVQLVESGVGLVQAGGSLRLSCAASGRTFSRNAMGWYRQSPGKERELVATISRGGGITFYADSVKGRFTISRDNAKNNVYLQMKSLKPEDTAVYYCNADVRYVGLRRIVDYWGLGTQVTVSS | high polyreactivity
14 | QVQLVESGGGLVQAGGSLRLSCAASGSIFKGYTMGWYRQAPGKEREFVASISRRGGSTYYADSVKGRFTISRDNAKNTVYLQMNSLKPDDTAVYYCAKDYGKAYDYWGQGTQVTVSS | high polyreactivity
15 | QVQLVESGGGLVQAGGSLRLRCAASGRIFPDNAMGGYRQAPGKERELVAAITYSGGSTSYADSVKGRFTISRDNAKNTVYLQMNRLKPEDTAVYYCIKAGGTSYDYVRVDKFPGVYWGQGTQVTVSS | low polyreactivity
16 | QVQLVESGGGLVQAGGSLRLSCAASGSTFHRNTMGWYRQAPAKERALVAGISLRGVSTYYADSVKGRFTISRDNAKNTVYLQMNSLKPEDTAVYYCAAGGPYTRNFKLGYWGQGTQVTVSS | high polyreactivity
17 | QVQLVESGGGLVQAGGSLRLSCAASGFIFYRNVMGWYRQAPGKERELVAAISGSGGRTYYADSVKGRFTISRDNAKNTVYLQMNSLKPEDTAVYYCAADASLEGDYWGQGTQVTVSS | high polyreactivity
18 | QVQLVESGGGLVQAGGSLRLSCAASGRTVSYYAMGWYRQAPGKEREFVAAISSSGGSTNYADSVKGRFTISRDNAKNTVYLQMNSLKPEDTAVYYCNAGSGYTGVYRWYYWRYDYWGQGTQVTVSS | low polyreactivity
19 | QVQLVESGGGLVQAGGSLRLSCAASGITFYRNAMGWDRQAPGKERELVAAISSRGGRTYYADSVKGRFTISRDNAKNTVYVQMNSLKPEDTAVYYCAKGGKVGSTLEYDYWGQGTQVTVST | high polyreactivity
20 | QVQLVDSGGGLVQAGGRLLLSCAASGRTFRKYTMGWYREAPGKERELVAAISSRGGSTYYADSVKGRFTISRDNAKYTVYLQMNSMKPEDTAVYYCDTDYITPSSEGDYWGQGTQVTVSS | high polyreactivity
21 | QVQLVESGGGLVQAGGSLRLSCAASGRTFPYYAMGWYRQAPGKEREFVAGISRTGGSTYYADSVKGRFTISRDNAKNTVYLQMNSLKPEDTAVYYCNAPYILTQQGGRRYDYWGQGTQVTVSS | high polyreactivity
22 | PVQLVESGGGLVQAGGSLRLSCAASGIIFSDYAMGWYRQGPGKERELVAAITGGVSKYYADSVKGRFTISRDNAKNTVYLQMNSLKPEDTAVYYCNTDAWLETPVSGYSWGQGTQVTVSS | low polyreactivity

Row | Sequence | polyreactivity (PSR sort gate)
23 | QVQLVESGGGLVQAGGSLRLSCAASGSIYLNYAMGWYRQAPGKERELVAGISNGGSTNYADSVKGRFTISRDNAKNTVYLQMKSLIPEDTAVYYCARPAYKSRGKRFDYWGQGTQVTVSS | low polyreactivity
24 | QVQLVESGGGLVQAGGSLRLSCAGSGSTFQNNAMGWYSQAPGKERELVAAISRSSGRRYYADSVKGRFTISRDHAKNTVYCQMNSLKPEDTAGYYCAASLGGYITRYNYWGQGTQVTVSS | high polyreactivity
25 | QVQLVESGGGLVQAGGSLRLSCAASGRILTYNTMGWYRQAPGKERELVAAITWRGGSTYYADSVKGRFTISRDNAKNTVYLQMNSLKPEDTAVYYCAKYVAFHYKQYDFNWGQGTQVTVSS | high polyreactivity
26 | QVQLVESGGGLVQAGGSLRLSCAASGIFRSNAMGWYRQAPGKERELVAGISSGGGTNYADSVKGRFTISRDNAKNTVYLQMNSLKPDDTAVYYCAKERIYFYYWYVYTDLVYEYDYWGQGTQVTVSS | low polyreactivity
27 | QVKLVESGGALVQAGGSLRLSCAASGSTFGWYAMGRYRQAPGKERELVAGISSGGASTYYADSVKGRFTISRDNAKNTFYLQMNSLKPEDSAVYYCAKDQIFRGYKTKFGYWGQGTQLTVSS | low polyreactivity
28 | QVQLVESGGGLVQAGGSLRLSCAASGRTFQYYAMGWYRQAPGKERELVAAISWSGGSTYYADSVKGRFTISRDNAKNTVYLQMNSLKPEVTAVYYCAASFRGQIVGYWGQGTQVTVSS | high polyreactivity
29 | QVQLVESGGGLVQAGGSLRLSCAASGYSFVRNAMGWYIQAPGKERELVAAISGSGGSTYYADSVKGRFTISRDNAKNTVYLQMNSLKPEDTAVYYCAADYATVTWRGIAYDYWGQGTQVTVSS | low polyreactivity
30 | QVQLVESGGGLVQAGGSLRLSCAASGSTFGPYAMGWYRQAPGKEVELVAAITASVGSTYYAESVKGRFTISRDNAKNTVYLQMNSLKPEDTAVYYCNADLSYFFGPYWGLYGLDYWGQGTQVTVSS | low polyreactivity
31 | QVQLVESGGGIVQAGGSLRKSCAASGFTFDENAMGWYRQAPGINYSGASTYYADSVKGRFTISRDNAKNTVYLQMNSLKPEDTAVYYCAAEVVAQMNYWGQGTQVTVSS | low polyreactivity
32 | QDQLVESGGGLVQAGGSLRLSCAASGRIFRLNAMGWSRQAPWKERELVAAITRGGNTYYADSVKGRFTISRDNAKNTVYLQMNSLKPEDTAVYYCAATSSRVSGYRYDYWGQGTQVTVSS | high polyreactivity
33 | QVQLVESGGGLVQAGGSLRLSCAASGSTFFVYAMGWYRQAPGNESEFVAAISKSGGSTYYADSEKGRFTISRDNAKNTVYLQMNSLKPEDTAVYYCAKYSGVNSIVGNDYWGQGTQVTVSS | high polyreactivity
34 | QVQRVESGGGLVQAGRSLRLSCAASGRTFTVYAMGWYRQAPGKERELVAGIRRGDSTYYADSVKGRFTISRDNAKHTVYLQMNSLKPEDTAVYYCNARTSGSSYYYWGQGTQVTVCS | high polyreactivity
35 | QVQLVESGGGLVQAGGSLRLSCAASGSTFGRYVMGWYRQAPGKEWELVAAISGSGGSTYYADSVKGRFTISRDNAKNTVDLQMNSLKPEDTAVYYCAAGGPTYELYRRGYWGQGTQVTVSS | high polyreactivity
36 | QVQLVESGGGLVQAGGSLRLSCAASGSTLVRYAMGWYRQAPGKERELVAAISGSGGSTFYADSVKGRFTISRDNAKNSVYLQMNSLKPEDTAVYYCAARYYWYGRAGNKHASYYYWGQGTQVTVSS | high polyreactivity
37 | QVQLVESGGGLVQAGGSLRLSCAASGITFAWYAMGWYRQAPGKERELVAAISRSGGSTYYADSVKGRFTISRDNAKNTVYLQMNSLKPEDTAVYYCADRASPRFNYWGQGTQVTVSS | high polyreactivity
38 | QVQLVESGGGLVQAGGSLRLSCAASGFIFFGYAMGWYRQAPGKEMELVAAITSGGSTYYADSVKGRFTISRDNAKNTVYLQMNSLKPEDSAVYYCAAVRWYGSKRYGYWGQGTQVTVSS | high polyreactivity
39 | QVQLVESGGGLVQAGGSLRLSCAASGRTFQYNAMGWYRQAPGKERELVAAISSYGGSTYYADSVKGRFTISRDNAKNTVYLQMNSLKPEDTAVYYCNAYSQSWNFYGDGDDWGQGTQVTVSS | low polyreactivity
40 | QVQLVESGGGLVQAGGSLRLSCAASGITFPWYAMGWYRQAPGKERELVAAINLAGNTNYADSVKGRFTISRDNAKNNVYLQMNSLKPEDTSVYYCAARWRYKYTLGYWGQGTQVTVSS | high polyreactivity
41 | QVQLVESGGGLVQAGGSLRLSCAASGSTLGYYDMGWYRQAPGKERELVAAITKSGGSTYYADSVKGRFTISRDNEKNNVYLQMNSLKPEDTAVYYCAAVYVSPKPGTRYYYWGQGTQVTVSS | high polyreactivity
42 | QVQLVESGGGLVQAGGSLRLSCAASGRIFYYYGMGWYRQAPGKEREFVAAISLGGARTYYADSVKGRFTISRDNAKNTVYLQMNSLKPEDTAVYDCYARGIGRSTKWSSRDYWGQGTQVTVSS | high polyreactivity
43 | QDQLVESGGGLVQAGGSLRLSCAASGRIFPLYVMGWYRQAPGKERELVAAISRSGSRTYYADSVKGRFTISRDNAKNTVYLQMNSLKPEDTAVYYCAAVTDGTTRYDGDYWGQGTQVTVSS | high polyreactivity
